Measured values as given in US20030040050A1 (published 2003).

What was measured:
[1] = target: T1, HA-TAK1 (UniProt Q62073 1-579, limits assumed); assay: coimmunoprecipitation from transfected 293 cells: IP anti-T7, immunoblot anti-HA
T1 construct: I recall the cited Yamaguchi 1995 clone as mouse TAK1 (Q62073); human TAK1 is O43318; also called HA-tagged TAK1 protein
T1 sequence (looked up): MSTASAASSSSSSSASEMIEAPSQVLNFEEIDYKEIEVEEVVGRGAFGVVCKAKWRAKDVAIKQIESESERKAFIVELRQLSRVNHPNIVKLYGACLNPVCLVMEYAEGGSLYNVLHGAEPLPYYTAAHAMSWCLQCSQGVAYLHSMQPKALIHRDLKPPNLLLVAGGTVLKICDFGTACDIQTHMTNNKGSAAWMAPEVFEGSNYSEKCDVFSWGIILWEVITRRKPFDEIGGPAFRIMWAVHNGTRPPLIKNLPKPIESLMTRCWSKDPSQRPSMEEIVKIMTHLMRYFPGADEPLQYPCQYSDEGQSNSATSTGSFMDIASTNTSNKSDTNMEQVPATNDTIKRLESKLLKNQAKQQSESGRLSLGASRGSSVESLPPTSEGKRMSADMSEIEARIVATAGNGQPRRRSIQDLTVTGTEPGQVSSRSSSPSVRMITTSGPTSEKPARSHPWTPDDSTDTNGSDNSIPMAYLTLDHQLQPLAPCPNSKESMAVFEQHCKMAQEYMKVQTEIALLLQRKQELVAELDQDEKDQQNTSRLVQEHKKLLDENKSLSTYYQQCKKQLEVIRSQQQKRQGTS
Procedure: 293 cells were transiently transfected with an expression vector for HA-TAK1 in combination with empty vector (−) or with expression vectors for T7-TAB2-Full length (Full), T7-TAB2C (C), or T7-TAB2N (N) as indicated. Cell extracts were immunoprecipitated (IP) with anti-T7 (7) or mouse IgG (C). Coprecipitated HA-TAK1 was detected by immunoblotting (IB) with anti-HA (upper panel, left). The amounts of immunoprecipitated T7-TAB2 proteins were determined with anti-T7 (lower panel). Whole cell extracts were immunoblotted with anti-HA to determine total amounts of HA-TAK1 (upper panel, right). Schematic representation of various TAB2 constructs is shown in the lower part. The coiled-coil regions are indicated by solid boxes.

[2] = target: T2, Flag-TRAF6 (UniProt Q9Y4K3 1-522); assay: coimmunoprecipitation from transfected 293 cells: IP anti-T7, immunoblot anti-Flag
T2 construct: The anti-TRAF6C peptide covers amino acids 497 to 522, which fits the 522-residue human protein; also called Flag-tagged TRAF6; 2Flag-TRAF6
T2 sequence (looked up): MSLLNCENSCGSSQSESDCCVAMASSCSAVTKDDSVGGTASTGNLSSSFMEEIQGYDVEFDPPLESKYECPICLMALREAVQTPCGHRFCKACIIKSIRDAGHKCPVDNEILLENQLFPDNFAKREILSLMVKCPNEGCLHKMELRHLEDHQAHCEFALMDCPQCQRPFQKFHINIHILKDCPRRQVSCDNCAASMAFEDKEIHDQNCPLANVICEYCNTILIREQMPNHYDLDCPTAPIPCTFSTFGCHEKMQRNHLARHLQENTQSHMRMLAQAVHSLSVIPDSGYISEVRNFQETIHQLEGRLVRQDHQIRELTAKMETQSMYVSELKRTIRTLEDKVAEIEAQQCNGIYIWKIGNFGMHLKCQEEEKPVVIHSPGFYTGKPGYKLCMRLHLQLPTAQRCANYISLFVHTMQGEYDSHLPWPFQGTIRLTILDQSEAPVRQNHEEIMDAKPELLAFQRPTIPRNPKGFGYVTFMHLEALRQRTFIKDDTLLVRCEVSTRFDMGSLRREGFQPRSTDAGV
Source text: (A) show an association of TAB2 with […] in mammalian cells. 293 cells were transiently transfected with an expression vector for 2Flag-TRAF6 in combination with empty vector (−) or with expression vectors for T7-TAB2-Full length (Full) (Full), T7-TAB2C (C), or T7-TAB2N (N) as indicated. Cell extracts were immunoprecipitated (IP) with anti-T7 (7) or mouse IgG (C). Coprecipitated Flag-TRAF6 was detected by immunoblotting (IB) with anti-Flag (upper panel, left). The amounts of immunoprecipitated T7-TAB2 proteins were determined with anti-T7 (lower panel). Whole cell extracts were immunoblotted with anti-Flag to determine total amounts of Flag-TRAF6 (upper panel, right).
The present inventors therefore determined whether TAB2 could interact with TRAF6 (FIG. 3A). T7-TAB2 was coexpressed with Flag-tagged TRAF6 in 293 cells and immunoprecipitated with anti-T7 antibody. The immune complexes were subjected to immunoblotting with a monoclonal antibody to Flag. TAB2 efficiently precipitated with TRAF6 (lane 4). To determine which domain of TAB2 is responsible for its TRAF6 association, the inventors tested whether TAB2N or TAB2C is able to bind to TRAF6, using the same experimental procedure. […] Thus, the C-terminal domain of TAB2 is required for TRAF6 binding.

B1: T7-TAB2N (other)
chain: MASMTGGQQMGMAQGSHQIDFQVLHDLRQKFPEVPEVVVSRCMLQNNNNLDACCAVLSQESTRYLYGEGDLNFSDDSGISGLRNHMTSLNLDLQSQNIYHHGREGSRMNGSRTLTHSISDGQLQGGQSNSELFQQEPQTAPAQVPQGFNVFGMSSSSGASNSAPHLGFHLGSKGTSSLSQQTPRFNPIMVTLAPNIQTGRNTPTSLHIHGVPPPVLNSPQGNSIYIRPYITTPGGTTRQTQQHSGWVSQFNPMNPQQVYQPSQPGPWTTCPASNPLSHTSSQQPNQQGHQTSHVYMPISSPTTSQPPTIHSSGSSQSSAHSQYNIQNISTGPRKNQIEIKLEPPQRNNSSKLRSSGPRTSSTSSSVNSQTLNRNQPTVYIAASPPNTDELMSRSQPKVYISANAATGDEQV
notes: Expressed in 293 cells; also called N (1-400)
B1: no binding [1]; no binding [2].
